This is an account of results in patent publication US20220380426A1.

The assay addresses IL-27 receptor (on BL-2 cells) (human) (UniProt Q6UWB1). The experiment in a line: cell-based or functional assay.

Sequence of IL-27 receptor (on BL-2 cells) (human) (Q6UWB1 33-636, chain 1 of 2): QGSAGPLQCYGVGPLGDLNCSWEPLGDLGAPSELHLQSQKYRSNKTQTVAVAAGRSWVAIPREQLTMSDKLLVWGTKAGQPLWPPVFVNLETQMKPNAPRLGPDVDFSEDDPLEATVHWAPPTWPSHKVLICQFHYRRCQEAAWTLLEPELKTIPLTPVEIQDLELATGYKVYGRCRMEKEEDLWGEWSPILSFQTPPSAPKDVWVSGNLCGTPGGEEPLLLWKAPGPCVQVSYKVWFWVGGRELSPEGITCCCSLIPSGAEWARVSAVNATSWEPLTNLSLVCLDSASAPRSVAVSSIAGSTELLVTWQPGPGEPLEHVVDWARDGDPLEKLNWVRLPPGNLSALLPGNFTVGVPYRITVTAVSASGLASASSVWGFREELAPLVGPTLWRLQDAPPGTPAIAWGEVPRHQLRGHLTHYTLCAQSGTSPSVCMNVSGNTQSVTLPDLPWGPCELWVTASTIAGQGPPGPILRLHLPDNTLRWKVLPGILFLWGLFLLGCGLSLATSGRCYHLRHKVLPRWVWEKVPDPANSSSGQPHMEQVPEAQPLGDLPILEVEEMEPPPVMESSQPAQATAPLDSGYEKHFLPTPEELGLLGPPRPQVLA
Sequence of IL-27 receptor (on BL-2 cells) (human) (P40189 23-918, chain 2 of 2, further chain): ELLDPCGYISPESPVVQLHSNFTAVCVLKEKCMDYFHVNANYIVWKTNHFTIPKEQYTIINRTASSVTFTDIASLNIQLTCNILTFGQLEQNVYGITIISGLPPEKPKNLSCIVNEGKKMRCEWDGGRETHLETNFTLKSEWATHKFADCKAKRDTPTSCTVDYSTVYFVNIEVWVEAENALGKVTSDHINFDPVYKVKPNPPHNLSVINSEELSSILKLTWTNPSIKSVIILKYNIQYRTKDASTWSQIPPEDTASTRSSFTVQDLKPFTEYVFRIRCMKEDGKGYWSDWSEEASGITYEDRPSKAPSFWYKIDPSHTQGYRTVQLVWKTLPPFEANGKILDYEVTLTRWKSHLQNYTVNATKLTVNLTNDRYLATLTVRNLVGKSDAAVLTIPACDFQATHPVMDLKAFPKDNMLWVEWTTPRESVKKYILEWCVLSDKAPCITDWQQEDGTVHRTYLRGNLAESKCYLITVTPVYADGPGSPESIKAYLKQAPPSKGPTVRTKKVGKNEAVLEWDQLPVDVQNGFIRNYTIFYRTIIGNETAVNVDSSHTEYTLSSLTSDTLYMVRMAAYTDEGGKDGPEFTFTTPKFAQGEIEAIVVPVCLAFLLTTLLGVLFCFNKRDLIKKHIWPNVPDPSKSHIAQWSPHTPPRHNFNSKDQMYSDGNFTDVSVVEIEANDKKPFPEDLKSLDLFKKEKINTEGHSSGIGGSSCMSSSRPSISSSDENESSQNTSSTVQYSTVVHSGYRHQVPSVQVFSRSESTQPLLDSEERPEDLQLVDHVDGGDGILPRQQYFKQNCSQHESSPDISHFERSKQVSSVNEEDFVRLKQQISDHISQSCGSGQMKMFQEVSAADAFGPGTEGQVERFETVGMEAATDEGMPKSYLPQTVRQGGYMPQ

Substance “IL-27alpha^L162C,T238A,S240A (mutein of the alpha-subunit of human Interleukin 27) (from UniProt Q8NEV9 29-243) (ligand)” came in with an STAT1 activation (immunoblotting against phosphorylated STAT1), BL-2 cells, 60 minutes, 1000 ng/mL (fold over IL-27alpha^L162C) of 8.5.
